In the nanobody polyreactivity screen of Harvey et al. (2022):

Assay: yeast display, Sf9 membrane polyspecificity reagent, FACS + sequencing; frameworks hold sequencing errors
Summary of the method: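 Nanobodies from a synthetic yeast display library (Saccharomyces cerevisiae BJ5465), induced 36–48 hours with galactose, were stained 1 hour at 4 °C with 10% biotinylated, detergent-solubilized Sf9 membrane reagent, enriched on streptavidin microbeads, then FACS-sorted. Anti-HA (expression) and streptavidin (reagent binding) fluorescence set low and high (top ~1%) gates. Polyreactivity labels come from the gate of origin. Genes were colony-PCR amplified, MiSeq 2 × 250 sequenced and filtered by CDR length.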

With “QVQLVESGGGLVQAGGSLRLSCAASGRISGWYAMGWYRQAPGKERELVASISSSGGSTYYADSVEGRFTISRDNAKNTVYFQMNSLKPEDTAVYYCAVRRYNWSFYRGYDYWGQGTQVTVSS” the “polyreactivity (PSR sort gate)” value was “high polyreactivity”.

For “QVQLVESGGGLVQAGGSLRISCAASGFTFTYYTMGWYRQAPGKERELVAAINRSGTSTYYADSVKGRFTISRDNAKNTVYLQMNSLKPEDTAVYYCAAKFTTGYYYGVPRDYWGQGTQVTVSS”, the “polyreactivity (PSR sort gate)” value was “high polyreactivity”.

In the case of “QVQLVESGEGLVQAGGSLRLSCAASGIFPYNAMGWYRQAPGKEREFVAGISRRGGSTYYADSVKGRFTISRDNAKNTVYLQMNSLKPEDTAVYYCAAGTYHKVVRRWASYYYWGQGTQVTVSS”, the “polyreactivity (PSR sort gate)” value is reported as “high polyreactivity”.

With “QVQLVESGGGLVQAGGSLRLSCAASVSIFYRNARGWYRQEPGKEREMVAAISSSVSSTYYADSVKGRFTISRDNAKNTVYLQMNSLKPEDTAVYYCAARRFQRGGDYFYRYLYDYWGQGTQVTVSS” the “polyreactivity (PSR sort gate)” value was “low polyreactivity”.

In the case of “QVQLVESGGGLVQAGGSLRLSCPASGINFIFYAMAWYREAPGKERELVATIRRSGSTYYADSVKGRFTISRDNAKNTVYLQMNSLKPEDTAVYYCNARYPYSYGDYWGQGTQVTVSS”, the “polyreactivity (PSR sort gate)” value is reported as “high polyreactivity”.

With “QVQLVESGGGLVQAGGSLRLSCAASGSTFQYYAMGWYRQAPGKDRELVAAIRTGGSTNYAHSVKGRFTISRDNAKNTVYLQMNSLKPDDNAVYYCAKRSLRSYRMNYWGQGTQVTVSS” the “polyreactivity (PSR sort gate)” value was “high polyreactivity”.

In the case of “QVQLVESGGGLVQAGGSLRLSCAASGFIFSQYTMGWYRQAPGKERELVAAISFSDSSTFYADSVKGRFTISRDNAKNTVYLQMNSLKPEDTAVYYCAAEWGYRQRYFYATGGYWGQGTQVTVSS”, the “polyreactivity (PSR sort gate)” value is reported as “low polyreactivity”.

With “QVQLVESGGGLVQAGGSLRLSCAASGRTFTLNAMGWYRQAPGKERELVAAISGDTGSTYYADSVKGRFTISRDNAKNTVFLQMNSLKPEDTAVYYCATRHAGTWYYWFERYYWGQGTQVTVSS” the “polyreactivity (PSR sort gate)” value was “high polyreactivity”.

With “QVQLVESGGGLVQAGGSLRLSCAASGRIFGLNAMGWYRQAPGKERELVAAISERDGSTYYADSVKGRFTISRDNAKNTVYLQMNSLKPEDTAVYYCAAEKPVHYVRGVHYDYWGQGTQVTVSS” the “polyreactivity (PSR sort gate)” value was “low polyreactivity”.

In the case of “QVQLVESGGGLVQAGGSLRLSCAASGSIFGINAMGWYRQAPGKERELVAAITNSGANTYYADSVKGRFTISRDNAKNTVYLQMNSLKPEDTAVYYCATDFIGVIYDYWGQGTQVTVSS”, the “polyreactivity (PSR sort gate)” value is reported as “low polyreactivity”.

In the case of “QVQLVESVGGLVQAGGSLRLSCAASGSILVSYAMGWSRQAPGKERELGPAITQGGGSTYYADCVKGRFTFSRDNAKNTVYLQMNSLKPEDTAVYYCSVDGLSDDRYSAGGDYWGQGTQVTVSS”, the “polyreactivity (PSR sort gate)” value is reported as “low polyreactivity”.

With “QVQLVESGGGLVQAGGSLRLSCAASGSTFTYYAMGWYRQARGKERELVAAISSGGSTYYADSVKGRFTISRDNAKNTDYLQMNSLKPEDTAVYYCAARGYYGKFSGTGYWGQGTQVTVSS” the “polyreactivity (PSR sort gate)” value was “high polyreactivity”.

For “QVQLVESGGGLVQAGGSLRLSCAASGFTFNRYAMGWYRQAPGKERELVATITSGGNTYYADSVKGRFTISRDNAKNTVYLQMNSLKPEDTAVYYCNKRGWYSVYRRDFWGQGTQVTVSS”, the “polyreactivity (PSR sort gate)” value was “high polyreactivity”.

With “QVQLVESGGGIVQAGGSLRLSCAASGFTFEYYAMGWYRQAPGKERELVADITSGGTYYADSVKGRFTISRDNAKNTVYLQMNSLKPEDTAVYYCAADFGQPYTYYAKENYWGQGTQVTVSS” the “polyreactivity (PSR sort gate)” value was “low polyreactivity”.

With “QVQLGESGGGLVQAGGSLRLSCAASGRIFRWYAMGWYRQAPGKVRELVAAISRSGTSTYYADSVKGRFTISRDNAKNTVYLQMNSLKPEDTAVYYCAADAVIFGMDYWGQGTQVTVSS” the “polyreactivity (PSR sort gate)” value was “low polyreactivity”.

For “QVQLVESGGGLVQAGGSLRLSCAATGSIFGKYAMGWSRQAPGKERELVAVITWSGGSTYYADSVKGRFTISRDNAKNTVYLQMNSLKPEDTAVYYCNAANTGSQDYQSIGYNFNYWGQGTQVTVSS”, the “polyreactivity (PSR sort gate)” value was “low polyreactivity”.

In the case of “QVQLVESGGGLVQAGGSLRLSCAASGSIFDTYAMGWYRQAPGKERELVAAITQSGDRTYYADSVKGRFTISRDNAKNTVYLQMNSLKPEDTAVYYCNTRRGSAWSSDYWGQGTQVTVSS”, the “polyreactivity (PSR sort gate)” value is reported as “low polyreactivity”.

For “QVQLVESGGGLVQAGGSLRLSCAASGNTFYWYVMGWYRQAPGKERELVARITSSGGSTNYADSVKGRFTISRDNAKNTVYLQMNSLKPEDTAVYYCAADDIYLYGGGTDYYYWGQGTQVTVSS”, the “polyreactivity (PSR sort gate)” value was “low polyreactivity”.

With “QVQLVESGGGLVQAGGSLRLSCAASGFTFTIYAMGWYRQAPGKERELVATISGRAGRTYYADSVKGRFTISRDNAKNTVYLQITSRKPEDSAVYYCNAGQWRYPGLYYYWGHGTQVTVSS” the “polyreactivity (PSR sort gate)” value was “high polyreactivity”.

With “QVQLVESGGGLVQAGGSLRLSCAASGRIFDDYAMGWYRQAPGKEREFVAAISRSGASTYYADSVKGRFTISRDNAKNTVYLQMNSLKPEDTAVYYCAARAGANYRMDYWGQGTQVTVSS” the “polyreactivity (PSR sort gate)” value was “high polyreactivity”.

With “QVQLVESGGGLVQAGRSLRLSCAASGSISRFYAMGWYRQAPAKERELVGANSWSGGRTYYADSVKGRFTISRDNAKNTVYLQMNSLKPEDTAVYYCNAFRRYNDEDYWGQGTQVTVSS” the “polyreactivity (PSR sort gate)” value was “high polyreactivity”.

With “QVQLVESGGGLVQAGGSLRLSCAASGIIFDEYAMGWYRQAPGKEREMVAAITSGGSTYYADSVKGRFTISRDNAKNTVYLQMNSLKPEDTAVYYCNAYSSYGTFFYWAWPYYYWGQGTQVTVSS” the “polyreactivity (PSR sort gate)” value was “high polyreactivity”.

In the case of “QVQLVESGGGLVQAGGSLRLSCAASGLIFYRNAMGWYRQAPGKERELVAGISASGGRTYYADSVNGRFTISRDNAKNTVYLQMNSLKPEDTAVYYCNRPSIYRYPQRLLGNFWGQGTQVTVSS”, the “polyreactivity (PSR sort gate)” value is reported as “high polyreactivity”.

With “QVQLVESGGGLVQAGGSLRLSCAASGFTFGNYAMGWYRQAQGKERELVDAISGSGGSTYYADSVKGRFTISRYNAKNTVYLQMNSLKPEDTAVYYCAARYWVTYWPDYYYWGQGTQVTVPS” the “polyreactivity (PSR sort gate)” value was “high polyreactivity”.

For “QVQLVESGGGLVQAGGSLRLSCAASGSTFTSYAKGCYRQAPGKERELVAAISRRGTSTYYADSVKGRFTISRDNAKHTVYLQMNSLKPEDTAVYYCAADGYYCEYYYWGQGTQVTVSS”, the “polyreactivity (PSR sort gate)” value was “high polyreactivity”.

For “QVQLVESGGGLVQAGGSLRLSCAASGRTFYGNGMGWYRQAPGKRELVAAISYSGASTYYADSVKGRFTISRDNAKNTVCLLMNSLKPEDTAVYYCAAQPSVYCSLFTRASEDYWGQGTQVTVSS”, the “polyreactivity (PSR sort gate)” value was “high polyreactivity”.

With “QVQLVESGGGLVQAGGSLRLSCAASGRTFYGYAMGWYRQAPGKERELVASISRDASTNYADSVKGRFTISRDNAKNTVYLQMNSLKPEDTAVYYCAADIWYYRYPIYYYSYDYWGLGTQVTVSS” the “polyreactivity (PSR sort gate)” value was “low polyreactivity”.

For “QVQLVESGGGLVQAGGSLRLSCAASGRTFSWYAMGWYRQAPGKEREFVAAITSGGSTYYADSVKGRFTISRDNAMNTVYLQMNSLKPEDTAVYYCAAYGYWGQGTQVTVSS”, the “polyreactivity (PSR sort gate)” value was “high polyreactivity”.

In the case of “QVQLVESGGGLVQAGGSLRLSCAASGSTTYYAMGWYRQAPGKERELVAAISYSGGSTFYADSVKGRFRISRDNAKNTVYLQMNSLKPEDTAVYYCAADLGFPFDYWGQGTKVTVSS”, the “polyreactivity (PSR sort gate)” value is reported as “low polyreactivity”.

In the case of “QVQLVESGGGLVQAGGSLRLSCAASGRIFPGYAMGWYRQAPGKERELVAAISWIGGDTYYADSVKGRFTISRDNAKNTVYLQMNSLKPEDTAVYYCAARYGRHRVSWYATWRYGYWGQGTQVTVSS”, the “polyreactivity (PSR sort gate)” value is reported as “low polyreactivity”.

With “QVQLVESRGCLVQAGGSLRLSCAASGRTFYRYVMGWYRQAPGKEMELVAAISEGGGSTFYADSVKGRFTISRDNAKNTDYLQMNSLKPEDTAVYYCAADYYVRGGFFRYDYWGQGTQVTVSS” the “polyreactivity (PSR sort gate)” value was “low polyreactivity”.

With “QVQLVESGGGLFQEGGSLRLICAASGFTFSGYAMGWYRQAPGKERELVDAISSSGGSTYYADSVKGRFTISRDNAKNTVYLQMNSLKPEDTAVYYCYDRSRYYPGYSRFFYWGQGTQVTVSS” the “polyreactivity (PSR sort gate)” value was “high polyreactivity”.

With “QVQLVESGGGLVQAGGSLRLSCAASGRTFSYYAMGWYRQAPGKERELVAAIDDNGGTTYADSVKGRFTISRDNATNTVYLQINSLKPEDTAVYYCAKRVSYFWALRRGYWGQGTKVTVSS” the “polyreactivity (PSR sort gate)” value was “high polyreactivity”.

With “QVQLVESGGGLVQAGGSLRLRCAASGRIFYFNAMGWYRQAPGKEREFVASINSIGDSTYYADSVKGRFTISRDTAKNTVYLQMNSLKPEDTAVYYCNADHGVINYRLDYWGQGTQVTVSS” the “polyreactivity (PSR sort gate)” value was “low polyreactivity”.

In the case of “QVQLVESGGGLLQAGGSLRLSCAASGRIYSIYAMGWYRQAPGKERELVASITGSGGTTYYADSVKGRFTISRDIAKNTVYLQMNSLKPEDTAVYYCAAVFYGFVGYYNEDYWGQGSQVTVSS”, the “polyreactivity (PSR sort gate)” value is reported as “low polyreactivity”.

In the case of “QVQLVESGGGLVQAGGSLRLSCAAYGSIFLYNALGGYIQAPGKEMELVADITSAGRTYYADSVKGRFTISRDNAKNTVYLQMNSLKPEDTAVYYCNKDYQYHFSWYGYWGQGTQVTVSS”, the “polyreactivity (PSR sort gate)” value is reported as “low polyreactivity”.

With “QVHLVESGGGLVQAGGSLRLSCAASGSIYHGNAMGWYRQAPGKERELVATISSGGSTYYADSLKVRFTISRDNAKNTVYLQMNSLKPEDTAVYYCAAERFWPYKSYYRGQGTQVTVSS” the “polyreactivity (PSR sort gate)” value was “low polyreactivity”.

In the case of “QVQLVESGGGLVQAGGSLRLSCAASGITFYGNAMGWYRQAPGKERELVAAISSSGGTTYYADSVKGRFTISRDNAKNTVYLQMNSLIPEDTAVYYCNALHPVVYYGTYFNLRRYDYWGQGTQVTVSS”, the “polyreactivity (PSR sort gate)” value is reported as “low polyreactivity”.

With “QVQLVESGGGLVQAGGSLRLSCAASGFNFTHYAMGWYRQAPGKERELVAAISRNGGSTYYADSVKGRFTISRDNAKNTVYLQMNSLKPEDTAVYYCAAVRHGVSLAGYYWGQGTQVTVSS” the “polyreactivity (PSR sort gate)” value was “high polyreactivity”.

In the case of “QVQLVESGGGLVQAGGSLRLSCAASGSTFPPNAMGWYRQAPGKERELVAVISNGGSNTRYADSVKGRFTISRDIAKNTVYLQMNSLKPEDTAVYYCAADYEYSGYGYWGQGTQVTVSS”, the “polyreactivity (PSR sort gate)” value is reported as “high polyreactivity”.

With “QVQLVESGGGLVQAGRTLRLSCAASGRTFVPYAMGWYRPAPGKERELVAAISYSGDSTYYADSVKGRFTISRDNAKNTVYLQMNRLKPEDTAVYYCAARGGYPFYYWGQGTQVTVSS” the “polyreactivity (PSR sort gate)” value was “low polyreactivity”.

With “QVQLVESGGGLVQAGGSLRLSCAASGSIFYSYAMGWYRQAPGKERELVAAINWSGGSTYYADSVKGRFTISRDNAKNTVYLQMKSLKPEDTAVYYCAADYGWGPIYDYWGQGTQVTVSS” the “polyreactivity (PSR sort gate)” value was “low polyreactivity”.

In the case of “QVQLVESGGGLVQAGGSLRLSCAASGGTFDINDMGWYRQAPGKEREFVAAIDWSGGNTYYADSVKGRFIISRDNAKNTVYLQMNSLKPEDTAVYYCNARRKRSYDYWGQGTQVTVSS”, the “polyreactivity (PSR sort gate)” value is reported as “low polyreactivity”.
